Measurements published in US20250296971A1, “GASTRIC INHIBITORY PEPTIDE RECEPTOR LIGANDS” (priority 2021, published 2025).
*1 amine or outer side, *2 acyl side, *3 side chain or, on linkers, in order; H or OH if unused. Where a SMILES comes first, the peptide text is derived from it. Bridges are numbered along the chain shown (N, C = ends). Primed or numbered codes have the meaning given here. [ ]: non-standard residue; d: D form. The star is where a group is joined. Ttds = 1,13-diamino-4,7,10-trioxatridecan-succinamic acid, NCCCOCCOCCOCCCNC(=O)CCC(=O)*; NH(1-deoxy-D-glucityl) = OC[C@@H](O)[C@@H](O)[C@H](O)[C@@H](O)CN*; APAc″ = 4-amino-1-carboxymethylpiperidine, NC1CCN(CC(=O)*)CC1; Ttds(4) = 1,13-diamino-4,7,10-trioxatridecan-succinamic acid; DOTA = O=C(O)CN1CCN(CC(=O)O)CCN(CC(=O)*)CCN(CC(=O)O)CC1; Trp(5-Cl) = N[C@@H](Cc1c[nH]c2ccc(Cl)cc12)C(=O)O; Phe(3,4-Cl2) = N[C@@H](Cc1ccc(Cl)c(Cl)c1)C(=O)O; Pyridine(2,6-diCH2) = c1cc(C[*:1])nc(C[*:2])c1; Phe(2,4-Cl2) = N[C@@H](Cc1ccc(Cl)cc1Cl)C(=O)O; Trp(7-aza) = N[C@@H](Cc1c[nH]c2ncccc12)C(=O)O; 2Lut″ = 2,6-lutidylidene linking two thiols; Oic = O=C(O)[C@@H]1C[C@@H]2CCCC[C@@H]2N1; Phe(4-Cl) = N[C@@H](Cc1ccc(Cl)cc1)C(=O)O; Phe(2-Cl) = N[C@@H](Cc1ccccc1Cl)C(=O)O; 1Nal = N[C@@H](Cc1cccc2ccccc12)C(=O)O; mXylylene = c1cc(C[*:1])cc(C[*:2])c1; Hyp = O=C(O)[C@@H]1C[C@@H](O)CN1; X1 = O=C(CN1CCC(N[*:1])CC1)[*:2]; Cysteamide = C(CS[*:3])N[*:1]; Thp = NC1(C(=O)O)CCOCC1; Dap = NC[C@H](N)C(=O)O; Aib = CC(C)(N)C(=O)O; Sar = CNCC(=O)O

Legend:
[1] = target: T1, GIPR (CHO-K1-hGIPR cells) (Homo sapiens, UniProt P48546); experiment: FACS binding assay; settings: competition with 20 nM GIP-057, 4° C., 1 hour, read-out: pIC50 Category (converted)
T1 construct: host or cells: CHO-K1
T1 sequence (P48546 22-466): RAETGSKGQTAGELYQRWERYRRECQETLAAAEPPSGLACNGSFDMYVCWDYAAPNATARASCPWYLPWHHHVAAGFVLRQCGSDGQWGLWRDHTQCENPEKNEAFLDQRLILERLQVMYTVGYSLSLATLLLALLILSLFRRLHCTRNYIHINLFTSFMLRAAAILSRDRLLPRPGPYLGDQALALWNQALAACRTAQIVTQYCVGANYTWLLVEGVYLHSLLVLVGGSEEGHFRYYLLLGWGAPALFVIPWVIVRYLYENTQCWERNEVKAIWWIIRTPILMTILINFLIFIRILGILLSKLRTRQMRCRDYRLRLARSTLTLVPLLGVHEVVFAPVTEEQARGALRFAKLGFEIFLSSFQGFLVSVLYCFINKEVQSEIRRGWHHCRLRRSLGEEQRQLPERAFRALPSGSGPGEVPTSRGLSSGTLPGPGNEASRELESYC
Method in brief: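 Median fluorescence in the APC channel, measured on washed CHO-K1 cells overexpressing human GIPR, was fitted by four-parameter logistic regression against peptide concentration to yield EC50 or IC50 values. Secondary labelling used APC-streptavidin (1 μg/mL, 30 min, ice).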

[2] = Plasma stability assay, mouse plasma; type: in vitro ADME; settings: 37° C., % intact compound remaining after 4 h or 24 h
Description: In order to determine the stability of selected compounds of the invention in human and mouse plasma, a plasma stability assay was carried out. Such plasma stability assay measures degradation of compounds of the present invention in blood plasma. This is an important characteristic of a compound as compounds, with the exception of pro-drugs, which rapidly degrade in plasma, generally show poor in vivo efficacy. […] The stability is sufficient for the diagnostic, therapeutic and theragnostic use of these compounds according to the present invention.
The plasma stability samples were prepared by spiking 50 μL plasma aliquots (all K2EDTA) with 1 μL of a 0.5 mM compound stock solution in DMS0. After vortexing the samples were incubated in a Thermomixer at 37° C. for 0, 4 and 24 hours. After incubation the samples were stored on ice until further treatment. All samples were prepared in duplicates.
A suitable internal standard was added to each sample (1 μL of a 0.5 mM stock solution in DMSO). Protein precipitation was performed by addition of 250 μL of acetonitrile containing 1% trifluoroacetic acid. After incubation at room temperature for 30 min the precipitate was separated by centrifugation and 150 μL of the supernatant was diluted with 150 μL of 1% aqueous formic acid.
Additionally, recovery was determined by spiking a pure plasma sample that only contained the internal standard after treatment with a certain amount of the compound.
Carry-over was evaluated by analysis of a blank sample (20% acetonitrile) after the highest calibration sample.

[3] = target: T2, human GIP receptor (bioGIPR) (Homo sapiens, UniProt P48546); experiment: Surface plasmon resonance (SPR) based binding assay; settings: Single Cycle Kinetic mode, 25° C.
T2 construct: Biotinylate extracellular of the human GIP receptor (bioGIPR, Proteros biostructures GmbH, lot #02/2b); purchased Proteros biostructures GmbH lot #02/2b
T2 sequence (P48546 22-138 limits assumed): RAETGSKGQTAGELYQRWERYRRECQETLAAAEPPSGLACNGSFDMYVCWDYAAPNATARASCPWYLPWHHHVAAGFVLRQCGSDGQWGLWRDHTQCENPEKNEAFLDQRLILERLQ
Method in brief: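 Binding was measured at 25 °C by single-cycle kinetics against a reference flow cell, with blank-run and drift correction, after capturing biotinylated GIPR extracellular domain to ~3500 RU. Running buffer: HBST, 0.1% DMSO. A 1:1 Langmuir model gave kinetic rates, KD, t1/2 and pKD.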

[4] = target: human Gastric Inhibitory Peptide Receptor (GIPR) (human) (UniProt P48546); experiment: FACS competition vs biotinylated GIP-057 on CHO-K1-hGIPR cells; category D: pIC50 <=6.0
[5] = target: biotinylated extracellular domain of the human GIP receptor (bioGIPR) (human) (UniProt P48546); experiment: SPR single cycle kinetics, bioGIPR captured on chip; category B: pKD 8.1-9.0
[6] = target: biotinylated extracellular domain of the human GIP receptor (bioGIPR) (human) (UniProt P48546); experiment: SPR single cycle kinetics, bioGIPR captured on chip; category A: t1/2 >15 min
[7] = target: human Gastric Inhibitory Peptide Receptor (human) (UniProt P48546); experiment: FACS competition with GIP-057 on CHO-K1-hGIPR cells; pIC50 category A: >8.0

Molecule | pIC50 [4] [pic50] | other results
CC[C@H](C)[C@@H]1NC(=O)[C@H](CC(C)C)NC(=O)C2(CCOCC2)NC(=O)[C@@H](NC(=O)[C@@H](CC(C)C)NC(=O)[C@H](CCC(=O)O)NC(=O)[C@@H]2C[C@@H](O)CN2C(=O)[C@H](Cc2c[nH]c3ccc(Cl)cc23)NC(=O)[C@H](Cc2c[nH]c3ccccc23)NC(=O)[C@H](CC(=O)O)NC(=O)CN2CCC(NC(=O)[C@@H](CCC(=O)NC[C@H](O)[C@@H](O)[C@H](O)[C@H](O)CO)NC(=O)CN3CCN(CC(=O)O)CCN(CC(=O)O)CCN(CC(=O)O)CC3)CC2)CSCc2cccc(n2)CSC[C@@H](C(=O)NC2CCN(CC(=O)N[C@H](CCC(=O)NC[C@H](O)[C@@H](O)[C@H](O)[C@H](O)CO)C(N)=O)CC2)NC1=O [GIP-005, DOTA-glu(AGLU)-APAc-Asp-Trp-5Clw-Hyp-Glu-leu-[Cys(2Lut)-Thp-Leu-Ile-Cys]-APAc-glu(AGLU)-NH2] ({DOTA}-[dE](NH(1-deoxy-D-glucityl))[X1]DW[Trp(5-Cl)][Hyp]E[dL]C[Thp]LIC[X1][dE](NH(1-deoxy-D-glucityl))-NH2; linker 9-13 via Pyridine(2,6-diCH2)) | – | IC50 [1]: < 10 nM; Mouse plasma stability category [2]: A (>80% intact after 24 hours); t1/2 Category ([3]; SPR dissociation half-life): A (t1/2 values>15 min); Kd ([3]; SPR, 1:1 Langmuir binding model, read-out: pKD Category (converted)): < 1 nM
Ac-Asp-Trp-1Ni-Pro-Glu-Thi-[Cys(3MeBn)-Aib-Leu-Ile-Cys]-NH2 (peptide) | < 6 | –
HO-Succinyl-Trp-Trp-Pro-Glu-leu-[Cys(3MeBn)-ala-Leu-Ile-Cys]-Ttds-Lys(DOTA)-NH2 (peptide) | < 6 | –
{DOTA-Ttds}-[Trp(5-Cl)]PE[dL]DWCIL[Aib][Cysteamide] (linker 7-11 via mXylylene) [DOTA-Ttds-5Clw-Pro-Glu-leu-Asp-Trp-[Cys(3MeBn)-Ile-Leu-Aib-AET]] | < 6 | –
{DOTA-Ttds}-WDP[Trp(5-Cl)][dL]ECLI[Aib][Cysteamide] (linker 7-11 via mXylylene) [DOTA-Ttds-Trp-Asp-Pro-5Clw-leu-Glu-[Cys(3MeBn)-Leu-Ile-Aib-AET]] | < 6 | –
Ac-DW[Trp(5-Cl)][Hyp]E[dL]C[Thp]LEC-NH2 (linker 7-11 via Pyridine(2,6-diCH2); SMILES CC(=O)N[C@@H](CC(=O)O)C(=O)N[C@@H](Cc1c[nH]c2ccccc12)C(=O)N[C@@H](Cc1c[nH]c2ccc(Cl)cc12)C(=O)N1C[C@H](O)C[C@H]1C(=O)N[C@@H](CCC(=O)O)C(=O)N[C@H](CC(C)C)C(=O)N[C@H]1CSCc2cccc(n2)CSC[C@@H](C(N)=O)NC(=O)[C@H](CCC(=O)O)NC(=O)[C@H](CC(C)C)NC(=O)C2(CCOCC2)NC1=O) [Ac-Asp-Trp-5Clw-Hyp-Glu-leu-[Cys(2Lut)-Thp-Leu-Glu-Cys]-NH2] | < 6 | –
Ac-DW[Trp(5-Cl)][Hyp]E[dL]C[Thp]LWC-NH2 (linker 7-11 via Pyridine(2,6-diCH2); SMILES CC(=O)N[C@@H](CC(=O)O)C(=O)N[C@@H](Cc1c[nH]c2ccccc12)C(=O)N[C@@H](Cc1c[nH]c2ccc(Cl)cc12)C(=O)N1C[C@H](O)C[C@H]1C(=O)N[C@@H](CCC(=O)O)C(=O)N[C@H](CC(C)C)C(=O)N[C@H]1CSCc2cccc(n2)CSC[C@@H](C(N)=O)NC(=O)[C@H](Cc2c[nH]c3ccccc23)NC(=O)[C@H](CC(C)C)NC(=O)C2(CCOCC2)NC1=O) [Ac-Asp-Trp-5Clw-Hyp-Glu-leu-[Cys(2Lut)-Thp-Leu-Trp-Cys]-NH2] | < 6 | –
{DOTA-APAc″}-DW[Trp(5-Cl)][Hyp]E[dL][Dap][Thp]LI[Cysteamide] (linker (positions not given here) via Pyridine(2,6-diCH2); not fully specified (bridges); printed as DOTA-APAc-Asp-Trp-5Clw-Hyp-Glu-leu-[Dap(2Lut)-Thp-Leu-Ile-AET]) [DOTA-APAc-Asp-Trp-5Clw-Hyp-Glu-leu-[Dap(2Lut)-Thp-Leu-Ile-AET]] | – | pKD [5]: 8.1 to 9 pkd; t1/2 [6]: > 15 min; pIC50 [7]: > 8 pic50
Ac-DW[Phe(4-Cl)][Hyp]E[dL]C[Thp]LIC-NH2 (linker 7-11 via 2Lut″) [Ac-Asp-Trp-Pcf-Hyp-Glu-leu-[Cys(2Lut)-Thp-Leu-Ile-Cys]-NH2] | < 6 | –
Ac-DW[Trp(5-Cl)][Hyp]E[dL]C[Thp]LRC-NH2 (linker 7-11 via Pyridine(2,6-diCH2); SMILES CC(=O)N[C@@H](CC(=O)O)C(=O)N[C@@H](Cc1c[nH]c2ccccc12)C(=O)N[C@@H](Cc1c[nH]c2ccc(Cl)cc12)C(=O)N1C[C@H](O)C[C@H]1C(=O)N[C@@H](CCC(=O)O)C(=O)N[C@H](CC(C)C)C(=O)N[C@H]1CSCc2cccc(n2)CSC[C@@H](C(N)=O)NC(=O)[C@H](CCCNC(=N)N)NC(=O)[C@H](CC(C)C)NC(=O)C2(CCOCC2)NC1=O) [Ac-Asp-Trp-5Clw-Hyp-Glu-leu-[Cys(2Lut)-Thp-Leu-Arg-Cys]-NH2] | < 6 | –
Ac-DW[Phe(2-Cl)][Hyp]E[dL]C[Thp]LIC-NH2 (linker 7-11 via 2Lut″) [Ac-Asp-Trp-Ocf-Hyp-Glu-leu-[Cys(2Lut)-Thp-Leu-Ile-Cys]-NH2] | < 6 | –
Ac-D[Phe(3,4-Cl2)][Phe(3,4-Cl2)][Oic]E[dL]C[Thp]LIC-NH2 (linker 7-11 via Pyridine(2,6-diCH2); SMILES CC[C@H](C)[C@@H]1NC(=O)[C@H](CC(C)C)NC(=O)C2(CCOCC2)NC(=O)[C@@H](NC(=O)[C@@H](CC(C)C)NC(=O)[C@H](CCC(=O)O)NC(=O)[C@@H]2C[C@@H]3CCCC[C@@H]3N2C(=O)[C@H](Cc2ccc(Cl)c(Cl)c2)NC(=O)[C@H](Cc2ccc(Cl)c(Cl)c2)NC(=O)[C@H](CC(=O)O)NC(C)=O)CSCc2cccc(n2)CSC[C@@H](C(N)=O)NC1=O) [Ac-Asp-Eaa-Eaa-Oic-Glu-leu-[Cys(2Lut)-Thp-Leu-Ile-Cys]-NH2] | < 6 | –
Ac-D[Phe(3,4-Cl2)][Phe(3,4-Cl2)][Sar]E[dL]C[Thp]LIC-NH2 (linker 7-11 via Pyridine(2,6-diCH2); SMILES CC[C@H](C)[C@@H]1NC(=O)[C@H](CC(C)C)NC(=O)C2(CCOCC2)NC(=O)[C@@H](NC(=O)[C@@H](CC(C)C)NC(=O)[C@H](CCC(=O)O)NC(=O)CN(C)C(=O)[C@H](Cc2ccc(Cl)c(Cl)c2)NC(=O)[C@H](Cc2ccc(Cl)c(Cl)c2)NC(=O)[C@H](CC(=O)O)NC(C)=O)CSCc2cccc(n2)CSC[C@@H](C(N)=O)NC1=O) [Ac-Asp-Eaa-Eaa-Nmg-Glu-leu-[Cys(2Lut)-Thp-Leu-Ile-Cys]-NH2] | < 6 | –
{DOTA-Ttds}-[dL]DP[Trp(5-Cl)]WLCE[Aib]I[Cysteamide] (linker 7-11 via mXylylene) [DOTA-Ttds-leu-Asp-Pro-5Clw-Trp-Leu-[Cys(3MeBn)-Glu-Aib-Ile-AET]] | < 6 | –
Ac-DW[Phe(2,4-Cl2)][Hyp]E[dL]C[Thp]LIC-NH2 (linker 7-11 via Pyridine(2,6-diCH2)) [Ac-Asp-Trp-Egm-Hyp-Glu-leu-[Cys(2Lut)-Thp-Leu-Ile-Cys]-NH2] | < 6 | –
Ac-D[Trp(7-aza)][1Nal]PE[dL]C[Aib]LIC-{Ttds(4)-K(DOTA)-NH2} (linker 7-11 via mXylylene) [Ac-Asp-7Nw-1Ni-Pro-Glu-leu-[Cys(3MeBn)-Aib-Leu-Ile-Cys]-Ttds-Lys(DOTA)-NH2] | < 6 | –
